Experimental data published in patent US20240084003A1 (SIMCERE ZAIMING PHARMACEUTICAL, published 2024).
Each block holds one binder with its values, some of them ahead of it.

What was measured:
human CD22 domain1-4-His = target: T1, human CD22 domain1-4-His (human, UniProt P20273 20-425); experiment: ELISA, plate coated with human CD22 domain1-4-His
T1 construct: also called hCD22 domain1-4-His; not shown: His tag
T1 sequence: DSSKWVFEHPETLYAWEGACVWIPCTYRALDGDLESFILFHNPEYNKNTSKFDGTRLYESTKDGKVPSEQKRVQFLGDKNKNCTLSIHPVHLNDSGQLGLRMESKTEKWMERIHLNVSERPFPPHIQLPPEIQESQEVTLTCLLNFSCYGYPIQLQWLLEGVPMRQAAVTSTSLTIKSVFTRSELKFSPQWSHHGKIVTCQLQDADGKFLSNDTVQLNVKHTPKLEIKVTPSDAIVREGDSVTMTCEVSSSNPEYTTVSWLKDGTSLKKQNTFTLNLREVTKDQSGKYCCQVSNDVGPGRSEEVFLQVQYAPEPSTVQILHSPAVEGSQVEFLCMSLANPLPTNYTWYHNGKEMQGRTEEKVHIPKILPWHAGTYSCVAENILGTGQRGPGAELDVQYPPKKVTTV

[1] = target: T2, human CD22-ECD-His protein (human, UniProt P20273 20-687); experiment: SPR (Biacore), antibody captured on Protein A chip, CD22-ECD-His in solution
T2 construct: Recombinant, from HEK293E cells; also called hCD22-ECD-His; human CD22-His protein; not shown: His tag
T2 sequence: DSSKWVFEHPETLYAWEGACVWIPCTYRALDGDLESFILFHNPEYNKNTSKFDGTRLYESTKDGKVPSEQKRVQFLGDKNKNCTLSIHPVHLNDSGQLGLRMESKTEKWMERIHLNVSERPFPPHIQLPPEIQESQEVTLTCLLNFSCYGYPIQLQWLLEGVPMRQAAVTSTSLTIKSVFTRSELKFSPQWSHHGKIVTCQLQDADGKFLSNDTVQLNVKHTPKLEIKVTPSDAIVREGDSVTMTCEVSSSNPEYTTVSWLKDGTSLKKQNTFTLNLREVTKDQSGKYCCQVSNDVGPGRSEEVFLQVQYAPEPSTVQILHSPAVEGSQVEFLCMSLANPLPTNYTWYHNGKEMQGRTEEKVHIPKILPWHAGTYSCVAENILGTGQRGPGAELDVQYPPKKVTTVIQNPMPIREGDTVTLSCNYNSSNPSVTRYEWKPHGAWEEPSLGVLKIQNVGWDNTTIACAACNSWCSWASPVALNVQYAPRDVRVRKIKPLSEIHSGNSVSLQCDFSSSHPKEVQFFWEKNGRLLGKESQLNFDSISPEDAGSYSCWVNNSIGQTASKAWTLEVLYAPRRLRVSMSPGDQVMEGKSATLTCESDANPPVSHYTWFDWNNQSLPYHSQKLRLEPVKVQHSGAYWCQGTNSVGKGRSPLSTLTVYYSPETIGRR
Procedure, shortened: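 Antibody captured on Protein A chip, then human CD22-ECD-His injected for 240 s at 30 μL/min, 5 concentrations from 200 nM (1:1 dilution), dissociation up to 600 s, in HBS-EP+ at 25° C. Responses double-referenced; apparent KD and kinetic constants fitted to a Langmuir 1:1 model.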

[2] = target: T3, murine CD22 protein (ACROBiosystems, SI2-M52Ha) (murine, UniProt P35329 22-708); experiment: ELISA, murine CD22-ECD-His coated
T3 construct: extracellular domain; also called murine CD22-ECD; murine CD22-ECD-His
T3 sequence (looked up): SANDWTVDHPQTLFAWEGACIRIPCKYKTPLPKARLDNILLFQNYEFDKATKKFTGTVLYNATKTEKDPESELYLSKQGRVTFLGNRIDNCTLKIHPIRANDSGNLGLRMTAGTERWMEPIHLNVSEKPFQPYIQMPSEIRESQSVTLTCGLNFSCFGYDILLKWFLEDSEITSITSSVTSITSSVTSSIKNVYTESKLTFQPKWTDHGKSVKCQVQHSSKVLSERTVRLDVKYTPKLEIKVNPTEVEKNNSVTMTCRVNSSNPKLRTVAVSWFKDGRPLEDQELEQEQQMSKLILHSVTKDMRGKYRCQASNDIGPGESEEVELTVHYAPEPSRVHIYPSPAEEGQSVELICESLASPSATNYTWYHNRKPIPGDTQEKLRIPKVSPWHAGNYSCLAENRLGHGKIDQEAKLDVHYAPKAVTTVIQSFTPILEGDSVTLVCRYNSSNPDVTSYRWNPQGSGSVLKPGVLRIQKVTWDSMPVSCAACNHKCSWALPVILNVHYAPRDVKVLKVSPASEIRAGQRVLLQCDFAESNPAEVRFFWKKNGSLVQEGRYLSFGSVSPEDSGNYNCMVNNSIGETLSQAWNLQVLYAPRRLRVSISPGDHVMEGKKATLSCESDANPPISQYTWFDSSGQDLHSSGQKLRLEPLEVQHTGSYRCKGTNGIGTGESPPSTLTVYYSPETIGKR
Procedure, shortened: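 Coat 2 μg/mL CD22 in PBS, overnight 4° C; block PBS/2% BSA 2 h RT. Ab 2 h 37° C; HRP anti-species secondary 2 h 37° C. TMB 30 min RT, stop 1.0 N HCl.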

[3] = target: T4, monkey CD22 protein (ACROBiosystems, SI2-R52Ha) (monkey (rhesus monkey in paragraph 148), UniProt H9G1X2 18-686); experiment: ELISA, monkey CD22-ECD-His coated
T4 construct: extracellular domain; also called monkey CD22-ECD; monkey CD22-ECD-His
T4 sequence: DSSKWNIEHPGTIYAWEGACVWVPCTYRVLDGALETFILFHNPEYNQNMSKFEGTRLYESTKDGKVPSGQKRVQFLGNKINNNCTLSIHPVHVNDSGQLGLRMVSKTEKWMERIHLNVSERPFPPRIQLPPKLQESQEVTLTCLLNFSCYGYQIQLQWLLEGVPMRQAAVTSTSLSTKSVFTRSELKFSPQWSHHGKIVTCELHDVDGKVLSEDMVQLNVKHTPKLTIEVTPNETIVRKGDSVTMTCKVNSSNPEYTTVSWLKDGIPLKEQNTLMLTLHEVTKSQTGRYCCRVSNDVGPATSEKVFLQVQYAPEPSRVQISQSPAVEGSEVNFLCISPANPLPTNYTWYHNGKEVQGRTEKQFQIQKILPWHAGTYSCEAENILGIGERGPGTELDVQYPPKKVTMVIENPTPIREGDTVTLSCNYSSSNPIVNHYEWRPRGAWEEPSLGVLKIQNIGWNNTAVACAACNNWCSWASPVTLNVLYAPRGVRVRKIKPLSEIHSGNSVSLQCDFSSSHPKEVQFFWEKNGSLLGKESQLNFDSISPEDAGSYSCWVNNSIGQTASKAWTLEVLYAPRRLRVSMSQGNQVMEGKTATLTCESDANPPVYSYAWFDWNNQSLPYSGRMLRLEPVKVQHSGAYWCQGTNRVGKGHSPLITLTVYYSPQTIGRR
Description: In order to detect the binding activity of CD22 human-murine chimeric antibodies to CD22 protein, the purified human CD22-ECD-His protein obtained in Example 2 was diluted with PBS to a final concentration of 2 μg/mL, and then added to 96-well ELISA plate at 100 μl/well. The plate was sealed with plastic film and incubated overnight at 4° C., the plate was washed 2 times with PBS the next day, and then a blocking solution [PBS+2% (w/w) BSA] was added for blocking at room temperature for 2 hours. […] After incubation at 37° C. for 2 hours, the plate was washed 3 times with PBS. HRP (horseradish peroxidase)-labeled secondary antibody (purchased from Sigma, catalog number: A0170) was added, and incubated at 37° C. for 2 hours, and the plate was washed 5 times with PBS. TMB substrate was added at 50 μl/well, and incubated at room temperature for 30 minutes, then a stop solution (1.0 N HCl) was added at 50 μl/well.
In order to detect the species cross-binding activity of the chimeric antibodies, an ELISA plate was coated with commercial murine CD22 protein (ACROBiosystems, catalog number: SI2-M52Ha) and monkey CD22 protein (ACROBiosystems, catalog number: SI2-R52Ha), respectively, and the ELISA detection was performed according to the method in Example 5.1.

[4] = target: T5, monkey CD22 (full length, on HEK293T cells) (monkey); experiment: FACS, HEK293T-monkey CD22 cells (293T as parent cells)
T5 construct: NCBI XP_014979161.2; also called HEK293T-monkey CD22; HEK293T cells overexpressing monkey CD22
T5 chain: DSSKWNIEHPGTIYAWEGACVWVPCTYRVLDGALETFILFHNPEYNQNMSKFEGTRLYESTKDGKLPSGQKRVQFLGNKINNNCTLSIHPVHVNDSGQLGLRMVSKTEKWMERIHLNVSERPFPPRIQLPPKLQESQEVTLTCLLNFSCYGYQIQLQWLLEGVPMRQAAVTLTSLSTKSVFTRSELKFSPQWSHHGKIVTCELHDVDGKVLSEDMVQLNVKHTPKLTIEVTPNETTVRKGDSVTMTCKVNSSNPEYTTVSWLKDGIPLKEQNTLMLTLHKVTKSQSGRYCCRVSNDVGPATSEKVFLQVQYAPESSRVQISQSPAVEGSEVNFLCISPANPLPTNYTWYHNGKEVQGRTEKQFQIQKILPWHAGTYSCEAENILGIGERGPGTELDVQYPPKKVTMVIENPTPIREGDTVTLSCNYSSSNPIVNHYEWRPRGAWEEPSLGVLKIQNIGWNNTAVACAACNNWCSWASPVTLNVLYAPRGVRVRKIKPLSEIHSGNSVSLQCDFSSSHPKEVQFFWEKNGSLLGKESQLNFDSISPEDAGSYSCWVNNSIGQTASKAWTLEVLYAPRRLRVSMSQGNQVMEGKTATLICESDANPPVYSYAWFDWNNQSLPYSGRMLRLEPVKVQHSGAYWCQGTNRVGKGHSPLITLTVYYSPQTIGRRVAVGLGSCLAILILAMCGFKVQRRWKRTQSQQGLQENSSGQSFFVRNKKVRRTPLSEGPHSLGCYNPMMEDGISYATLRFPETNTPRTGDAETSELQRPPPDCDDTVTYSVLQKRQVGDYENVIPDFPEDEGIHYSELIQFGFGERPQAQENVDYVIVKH
Excerpt: The required cells were scale-up cultured in a T-75 cell culture flask to the logarithmic growth phase. For the adherent cell CHO-K1, the medium was aspirated, the cells were washed 2 times with PBS buffer, and then digested with trypsin. After the digestion was terminated, the cells were washed 2 times with PBS buffer. For suspension cell Raji, the medium supernatant was directly centrifuged and discarded, and the cell pellet was washed 2 times with PBS. After counting the cells in the previous step, the cell pellet was resuspended with [PBS+2% (w/w) BSA] blocking solution to 2×10⁶ cells/ml, and added to a 96-well FACS reaction plate at 50 μl/well, and then the chimeric antibody test sample was added at 50 μl/well, and incubated on ice for 2 hours. The mixture was centrifuged and washed 3 times with PBS buffer, Alexa Flour 488-labeled secondary antibody (purchased from Invitrogen, catalog number: A-11013) was added at 50 μl/well, and incubated on ice for 1 hour. The obtained mixture was centrifuged and washed 5 times with PBS, and FACS (FACS Canto™, purchased from BD Company) was used for detection and result analysis. Data analysis was performed by software (CellQuest) to obtain the mean fluorescence density (MFI)of the cells. And then software (GraphPad Prism8) was used for analysis, data fitting, and EC50 value calculation. […] The same method was used to detect the binding of the chimeric antibodies to endogenous CD22-negative cell MoLT4 cells (purchased from ATCC, CRL-1582) and CHO-K1 cells.
HEK293T-monkey CD22 cells were subjected to FACS detection and data analysis according to the method in Example 5.2.

binding result (human CD22 domain1-4-His): no binding
Kd [1]: 18.4 nM
koff [1]: 0.000155 s⁻¹
kon [1]: 8450 M⁻¹ s⁻¹
B1: F2.180.16 (antibody, human IgG1, lambda, V domains shown)
VH: EVKLVESGGGLVLPGGSLKISCAASGFTFSDYYMYWIRQTPDKRLEWVAYISNTGYSTFYPDSVKGRFTVSRDNAKNTLYLQMSRLQSEDTAMYYCARHGILYAMDYWGQGTSVTVSS
VL: QPVLTQSSSASFSLGASAKLTCTLSSQYSTYTIGWYQQQPLKPPKYVMELKHDGSRHTGDGIPDRFSGSSSGADRYLSISNIQPEDEATYICGVGDTIKEQFMYVFGGGTKVTVLG
notes: Chimeric IgG1 lambda

binding result (human CD22 domain1-4-His): no binding
Kd [1]: 0.254 nM
koff [1]: 7.64e-05 s⁻¹
kon [1]: 301000 M⁻¹ s⁻¹
B2: F1.60.9 (antibody, human IgG1, kappa, V domains shown)
VH: QVQLKESGPGLVAPSQSLSITCTVSGLSLNNYGVSWVRQPPGKGLEWLGVIWGDGSTNYHSALISRLSISKDNSKSQVFLKLNSLHTDDTATYYCAINWGDYWGQGTTLIVSS
VL: DIKMTQSPSSMNASLGERVTITCKASQDINSYLSWFQQKPGKSPKILIYRANRLIDGVPSRFSGSGSGQDYSLTISSLEYEDMGIYYCLQYGVFPLTFGAGTKLELKR
notes: Chimeric IgG1 kappa

binding result [2]: no binding (tested: 100 nM)
binding result [3]: no binding (tested: 100 nM)
binding result [4]: no binding (tested: 10 nM)
B3: m971-hIgG1 (antibody, V domains shown)
VH: QVQLQQSGPGLVKPSQTLSLTCAISGDSVSSNSAAWNWIRQSPSRGLEWLGRTYYRSKWYNDYAVSVKSRITINPDTSKNQFSLQLNSVTPEDTAVYYCAREVTGDLEDAFDIWGQGTMVTVSS
VL: DIQMTQSPSSLSASVGDRVTITCRASQTIWSYLNWYQQRPGKAPNLLIYAASSLQSGVPSRFSGRGSGTDFTLTISSLQAEDFATYYCQQSYSIPQTFGQGTKLEIKR
notes: Control antibody; variable regions from US 8,591,889 B on human IgG1 constant regions
